What follows are sequences tested on c-Src (assay: phosphorylation enrichment, bacterial display (enrichment ratio); higher = better substrate or ligand; peptides without Tyr show the background).
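Wherever SH2 binding enrichment of the phosphorylated peptide, bacterial display is given: peptide library displayed on the E. coli surface as eCPX fusions, selected cells deep-sequenced, score is each peptide's frequency after selection divided by its frequency in the input.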
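Wherever phosphorylation enrichment, bacterial display is given: 11-residue human phosphosite peptides and single-mutation variants displayed on the E. coli surface, counted by deep sequencing, each peptide's frequency after selection divided by its frequency in the unselected input library; frequency after pTyr selection over input frequency; kinase dosed for 20-30% of maximal phosphorylation in three min.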

First: QLHEHCKIHKE [NSMAF_Y626_Y626C]
Second: QPRDIYHQTWA [GBA_Y244_G241R]
The phosphorylation enrichment of the first is lower: 0.724 for the first, 1.99 for the second.

First: TKHTFYKQPMF [GBA_Y451_D448H]
Second: KAPPTYDNVLQ [CYP3A4_Y347_T349N]
The phosphorylation enrichment of the first is lower: 0.377 for the first, 0.785 for the second.

Going from RGRKVYLEGGF [PRIM2_Y201_D204G] to NTFEKYLEEEF [TF_Y669_G671E_YF], the phosphorylation enrichment falls from 0.803 to 0.495.

Going from FPPISYLHAIS [MVD_Y276_N278H] to GVTLLYYGRDN [ADGRD1_Y85_Y89D], the phosphorylation enrichment rises from 0.608 to 0.816.

First: SLGSPYGQPPC [PDLIM4_Y137_R142C]
Second: DEYLEHRRIVG [FAM221A_Y20_Y20H]
The phosphorylation enrichment of the first is higher: 0.373 for the first, 0.347 for the second.

Compared with TNQVICLNPPI [DYNC1H1_Y970_Y970C], DFPGNYSGYDD [POLR1C_Y33] is higher in phosphorylation enrichment: 0.446 for the first, 0.612 for the second.

Going from WYQTKYEELQI [KRT6B_Y360] to AFPVSYSSPGA [RET_Y687_S690P], the phosphorylation enrichment falls from 0.552 to 0.475.

Going from RFVVLYDAELT [ERCC4_Y581_YF] to VLTSKYLGGGG [HBA1_Y141_R142L], the phosphorylation enrichment falls from 0.807 to 0.334.

First: AGAIIYTSRFQ [PFAS_Y538]
Second: ALAHKYRGGGG [HBD_Y146_H147R]
The phosphorylation enrichment of the first is higher: 0.929 for the first, 0.432 for the second.

Compared with EYQLPYYNMVP [BMPR1A_Y457], EKFVPYFDLFM [IPO5_Y530_YF] is lower in phosphorylation enrichment: 5.13 for the first, 0.596 for the second.

Compared with KGRGEYFAIKA [PRKCD_Y374], KVASVYEALGF [NT5C_Y65_P68L] is higher in phosphorylation enrichment: 0.47 for the first, 6.25 for the second.

Going from FADIAYNYRRG [PAH_Y166_H170R] to RKKEEYKMAPF [F8_Y1990_L1994P_YF], the phosphorylation enrichment falls from 0.511 to 0.469.

Compared with LADMNYVHRDL [EPHB2_Y742], QPGTDYKIFRF [FN1_Y1970_L1974R_YF] is higher in phosphorylation enrichment: 0.721 for the first, 1.89 for the second.

Going from QSSALYEDCFL [ASS1_Y83_R86C_YF] to HKLSYNEYDFE [BTK_Y40_Y40N], the phosphorylation enrichment falls from 4.69 to 2.02.

SVTCRYSPALN [TP53_Y126_T125R] gave a phosphorylation enrichment of 0.427.

Each sequence was assayed against Grb2 SH2 (UniProt P62993) (assay: SH2 binding enrichment of the phosphorylated peptide, bacterial display (enrichment ratio); higher = better substrate or ligand; peptides without Tyr show the background).
Sequence of Grb2 SH2 (P62993 whole entry, looked up): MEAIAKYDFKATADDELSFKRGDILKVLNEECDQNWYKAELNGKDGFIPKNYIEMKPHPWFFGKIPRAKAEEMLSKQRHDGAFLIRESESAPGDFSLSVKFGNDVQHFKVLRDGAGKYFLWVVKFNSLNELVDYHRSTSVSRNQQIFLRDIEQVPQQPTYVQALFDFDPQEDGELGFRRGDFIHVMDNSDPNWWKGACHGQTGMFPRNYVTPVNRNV

Compared with QLHEHCKIHKE [NSMAF_Y626_Y626C], QPRDIYHQTWA [GBA_Y244_G241R] is lower in SH2 binding enrichment: 1.37 for the first, 0.945 for the second.

First: TKHTFYKQPMF [GBA_Y451_D448H]
Second: KAPPTYDNVLQ [CYP3A4_Y347_T349N]
The SH2 binding enrichment of the first is lower: 1.04 for the first, 4.72 for the second.

Compared with RGRKVYLEGGF [PRIM2_Y201_D204G], NTFEKYLEEEF [TF_Y669_G671E_YF] is lower in SH2 binding enrichment: 0.941 for the first, 0.781 for the second.

First: FPPISYLHAIS [MVD_Y276_N278H]
Second: GVTLLYYGRDN [ADGRD1_Y85_Y89D]
The SH2 binding enrichment of the first is lower: 0.862 for the first, 1.13 for the second.

First: SLGSPYGQPPC [PDLIM4_Y137_R142C]
Second: DEYLEHRRIVG [FAM221A_Y20_Y20H]
The SH2 binding enrichment of the first is lower: 0.875 for the first, 0.918 for the second.

Going from TNQVICLNPPI [DYNC1H1_Y970_Y970C] to DFPGNYSGYDD [POLR1C_Y33], the SH2 binding enrichment rises from 0.788 to 0.853.

First: WYQTKYEELQI [KRT6B_Y360]
Second: AFPVSYSSPGA [RET_Y687_S690P]
The SH2 binding enrichment of the first is higher: 0.798 for the first, 0.685 for the second.

Going from RFVVLYDAELT [ERCC4_Y581_YF] to VLTSKYLGGGG [HBA1_Y141_R142L], the SH2 binding enrichment falls from 1.61 to 0.824.

Going from AGAIIYTSRFQ [PFAS_Y538] to ALAHKYRGGGG [HBD_Y146_H147R], the SH2 binding enrichment falls from 1.08 to 0.804.

Compared with EYQLPYYNMVP [BMPR1A_Y457], EKFVPYFDLFM [IPO5_Y530_YF] is lower in SH2 binding enrichment: 9.58 for the first, 1.05 for the second.

First: KGRGEYFAIKA [PRKCD_Y374]
Second: KVASVYEALGF [NT5C_Y65_P68L]
The SH2 binding enrichment of the first is higher: 1.2 for the first, 0.787 for the second.

First: FADIAYNYRRG [PAH_Y166_H170R]
Second: RKKEEYKMAPF [F8_Y1990_L1994P_YF]
The SH2 binding enrichment of the first is lower: 0.699 for the first, 1.06 for the second.

Going from LADMNYVHRDL [EPHB2_Y742] to QPGTDYKIFRF [FN1_Y1970_L1974R_YF], the SH2 binding enrichment falls from 0.676 to 0.644.

First: QSSALYEDCFL [ASS1_Y83_R86C_YF]
Second: HKLSYNEYDFE [BTK_Y40_Y40N]
The SH2 binding enrichment of the first is lower: 1.13 for the first, 1.14 for the second.

SVTCRYSPALN [TP53_Y126_T125R] gave an SH2 binding enrichment of 0.663.

Each sequence was assayed against SHP2-C SH2 in the same assay as above.

First: QLHEHCKIHKE [NSMAF_Y626_Y626C]
Second: QPRDIYHQTWA [GBA_Y244_G241R]
The SH2 binding enrichment of the first is higher: 1.15 for the first, 0.942 for the second.

Compared with TKHTFYKQPMF [GBA_Y451_D448H], KAPPTYDNVLQ [CYP3A4_Y347_T349N] is lower in SH2 binding enrichment: 1.13 for the first, 0.674 for the second.

Compared with RGRKVYLEGGF [PRIM2_Y201_D204G], NTFEKYLEEEF [TF_Y669_G671E_YF] is higher in SH2 binding enrichment: 0.27 for the first, 0.66 for the second.

Going from FPPISYLHAIS [MVD_Y276_N278H] to GVTLLYYGRDN [ADGRD1_Y85_Y89D], the SH2 binding enrichment rises from 0.657 to 1.04.

First: SLGSPYGQPPC [PDLIM4_Y137_R142C]
Second: DEYLEHRRIVG [FAM221A_Y20_Y20H]
The SH2 binding enrichment of the first is higher: 0.88 for the first, 0.611 for the second.

First: TNQVICLNPPI [DYNC1H1_Y970_Y970C]
Second: DFPGNYSGYDD [POLR1C_Y33]
The SH2 binding enrichment of the first is higher: 0.619 for the first, 0.582 for the second.

Compared with WYQTKYEELQI [KRT6B_Y360], AFPVSYSSPGA [RET_Y687_S690P] is lower in SH2 binding enrichment: 1.2 for the first, 0.679 for the second.

First: RFVVLYDAELT [ERCC4_Y581_YF]
Second: VLTSKYLGGGG [HBA1_Y141_R142L]
The SH2 binding enrichment of the first is higher: 1.31 for the first, 0.695 for the second.

First: AGAIIYTSRFQ [PFAS_Y538]
Second: ALAHKYRGGGG [HBD_Y146_H147R]
The SH2 binding enrichment of the first is higher: 1.1 for the first, 0.598 for the second.

Compared with EYQLPYYNMVP [BMPR1A_Y457], EKFVPYFDLFM [IPO5_Y530_YF] is lower in SH2 binding enrichment: 1.87 for the first, 0.827 for the second.

Compared with KGRGEYFAIKA [PRKCD_Y374], KVASVYEALGF [NT5C_Y65_P68L] is lower in SH2 binding enrichment: 1.29 for the first, 0.667 for the second.

Going from FADIAYNYRRG [PAH_Y166_H170R] to RKKEEYKMAPF [F8_Y1990_L1994P_YF], the SH2 binding enrichment rises from 0.583 to 0.905.

Going from LADMNYVHRDL [EPHB2_Y742] to QPGTDYKIFRF [FN1_Y1970_L1974R_YF], the SH2 binding enrichment falls from 0.667 to 0.635.

First: QSSALYEDCFL [ASS1_Y83_R86C_YF]
Second: HKLSYNEYDFE [BTK_Y40_Y40N]
The SH2 binding enrichment of the first is higher: 0.794 for the first, 0.412 for the second.

SVTCRYSPALN [TP53_Y126_T125R] showed an SH2 binding enrichment of 0.539.

Each sequence was assayed against c-Src SH2 in the same assay as above.

First: QLHEHCKIHKE [NSMAF_Y626_Y626C]
Second: QPRDIYHQTWA [GBA_Y244_G241R]
The SH2 binding enrichment of the first is higher: 0.945 for the first, 0.709 for the second.

Going from TKHTFYKQPMF [GBA_Y451_D448H] to KAPPTYDNVLQ [CYP3A4_Y347_T349N], the SH2 binding enrichment rises from 0.941 to 3.58.

Going from RGRKVYLEGGF [PRIM2_Y201_D204G] to NTFEKYLEEEF [TF_Y669_G671E_YF], the SH2 binding enrichment rises from 0.479 to 0.572.

First: FPPISYLHAIS [MVD_Y276_N278H]
Second: GVTLLYYGRDN [ADGRD1_Y85_Y89D]
The SH2 binding enrichment of the first is lower: 0.657 for the first, 0.807 for the second.

Compared with SLGSPYGQPPC [PDLIM4_Y137_R142C], DEYLEHRRIVG [FAM221A_Y20_Y20H] is lower in SH2 binding enrichment: 0.562 for the first, 0.484 for the second.

First: TNQVICLNPPI [DYNC1H1_Y970_Y970C]
Second: DFPGNYSGYDD [POLR1C_Y33]
The SH2 binding enrichment of the first is lower: 0.477 for the first, 2.03 for the second.

First: WYQTKYEELQI [KRT6B_Y360]
Second: AFPVSYSSPGA [RET_Y687_S690P]
The SH2 binding enrichment of the first is higher: 5.9 for the first, 0.615 for the second.

First: RFVVLYDAELT [ERCC4_Y581_YF]
Second: VLTSKYLGGGG [HBA1_Y141_R142L]
The SH2 binding enrichment of the first is higher: 0.837 for the first, 0.456 for the second.

Compared with AGAIIYTSRFQ [PFAS_Y538], ALAHKYRGGGG [HBD_Y146_H147R] is higher in SH2 binding enrichment: 0.464 for the first, 0.535 for the second.

First: EYQLPYYNMVP [BMPR1A_Y457]
Second: EKFVPYFDLFM [IPO5_Y530_YF]
The SH2 binding enrichment of the first is higher: 3.74 for the first, 1.11 for the second.

Going from KGRGEYFAIKA [PRKCD_Y374] to KVASVYEALGF [NT5C_Y65_P68L], the SH2 binding enrichment falls from 1.22 to 0.613.

First: FADIAYNYRRG [PAH_Y166_H170R]
Second: RKKEEYKMAPF [F8_Y1990_L1994P_YF]
The SH2 binding enrichment of the first is higher: 0.427 for the first, 0.407 for the second.

Compared with LADMNYVHRDL [EPHB2_Y742], QPGTDYKIFRF [FN1_Y1970_L1974R_YF] is higher in SH2 binding enrichment: 0.305 for the first, 0.497 for the second.

First: QSSALYEDCFL [ASS1_Y83_R86C_YF]
Second: HKLSYNEYDFE [BTK_Y40_Y40N]
The SH2 binding enrichment of the first is higher: 0.831 for the first, 0.79 for the second.

Work on SVTCRYSPALN [TP53_Y126_T125R] yielded an SH2 binding enrichment of 0.366.
